# System: Escherichia coli TOP10
# Assay: shrunken log2 fold change of peptide-encoding DNA abundance (4.5 h post-induction vs induction); higher = less antimicrobial activity (less host growth inhibition)
# Details: time post-induction: 4.5 h; library: site-saturation at positions 5, 18, 19, 20
# 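Further: peptides expressed intracellularly from a pBAD plasmid library in pooled LB shake-flask culture, induced with 0.3% L-arabinose, DNA abundance read by NGS, three biological replicates, DESeq2 with apeglm shrinkage.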
row,Sequence,shrunken log2 fold change
1,RRIRERPPRLPRPRPRPRYQPRP,-0.227
2,RRIRERPPRLPRPRPRPSATPRP,0.0731
3,RRIRERPPRLPRPRPRPSDDPRP,-0.0902
4,RRIRERPPRLPRPRPRPSDKPRP,-0.982
5,RRIRERPPRLPRPRPRPSDVPRP,-0.182
6,RRIRERPPRLPRPRPRPSEFPRP,-0.23
7,RRIRERPPRLPRPRPRPSFHPRP,-0.549
8,RRIRERPPRLPRPRPRPSFTPRP,-1.03
9,RRIRERPPRLPRPRPRPSGWPRP,-0.0693
10,RRIRERPPRLPRPRPRPSHLPRP,-0.188
11,RRIRERPPRLPRPRPRPSIIPRP,-0.188
12,RRIRERPPRLPRPRPRPSKHPRP,-0.775
13,RRIRERPPRLPRPRPRPSKTPRP,-0.0833
14,RRIRERPPRLPRPRPRPSMYPRP,-0.516
15,RRIRERPPRLPRPRPRPSNFPRP,-0.909
16,RRIRERPPRLPRPRPRPSPLPRP,-0.0982
17,RRIRERPPRLPRPRPRPSPPPRP,-0.013
18,RRIRERPPRLPRPRPRPSQHPRP,-0.49
19,RRIRERPPRLPRPRPRPSSFPRP,-0.426
20,RRIRERPPRLPRPRPRPSSVPRP,-0.306
21,RRIRERPPRLPRPRPRPSWQPRP,-0.00861
22,RRIRERPPRLPRPRPRPSWVPRP,-0.178

row,Sequence,shrunken log2 fold change
1,RRIRERPPRLPRPRPRPSYIPRP,-0.216
2,RRIRERPPRLPRPRPRPTCHPRP,-0.186
3,RRIRERPPRLPRPRPRPTCIPRP,-0.23
4,RRIRERPPRLPRPRPRPTDDPRP,-0.00106
5,RRIRERPPRLPRPRPRPTEGPRP,0.0858
6,RRIRERPPRLPRPRPRPTERPRP,0.0425
7,RRIRERPPRLPRPRPRPTFHPRP,-0.0533
8,RRIRERPPRLPRPRPRPTGCPRP,0.155
9,RRIRERPPRLPRPRPRPTGFPRP,-0.00436
10,RRIRERPPRLPRPRPRPTGKPRP,-0.0509
11,RRIRERPPRLPRPRPRPTHIPRP,-0.924
12,RRIRERPPRLPRPRPRPTHPPRP,0.447
13,RRIRERPPRLPRPRPRPTLYPRP,-0.184
14,RRIRERPPRLPRPRPRPTMLPRP,0.00422
15,RRIRERPPRLPRPRPRPTQLPRP,0.251
16,RRIRERPPRLPRPRPRPTSFPRP,0.0302
17,RRIRERPPRLPRPRPRPTSWPRP,0.0831
18,RRIRERPPRLPRPRPRPTYMPRP,-0.121
19,RRIRERPPRLPRPRPRPTYVPRP,-0.132
20,RRIRERPPRLPRPRPRPTYWPRP,-0.219
21,RRIRERPPRLPRPRPRPVAWPRP,0.00482
22,RRIRERPPRLPRPRPRPVCNPRP,-0.12

row,Sequence,shrunken log2 fold change
1,RRIRERPPRLPRPRPRPVCVPRP,-0.0194
2,RRIRERPPRLPRPRPRPVDGPRP,0.222
3,RRIRERPPRLPRPRPRPVFVPRP,-0.178
4,RRIRERPPRLPRPRPRPVGMPRP,-0.0934
5,RRIRERPPRLPRPRPRPVGNPRP,-0.191
6,RRIRERPPRLPRPRPRPVGQPRP,0.129
7,RRIRERPPRLPRPRPRPVIHPRP,-0.106
8,RRIRERPPRLPRPRPRPVKNPRP,0.0428
9,RRIRERPPRLPRPRPRPVKPPRP,-0.102
10,RRIRERPPRLPRPRPRPVLDPRP,-0.12
11,RRIRERPPRLPRPRPRPVLIPRP,-0.153
12,RRIRERPPRLPRPRPRPVMIPRP,-0.22
13,RRIRERPPRLPRPRPRPVNWPRP,-0.0528
14,RRIRERPPRLPRPRPRPVPPPRP,0.22
15,RRIRERPPRLPRPRPRPVPRPRP,0.151
16,RRIRERPPRLPRPRPRPVSDPRP,-0.26
17,RRIRERPPRLPRPRPRPVSHPRP,-0.0904
18,RRIRERPPRLPRPRPRPVSQPRP,-0.0404
19,RRIRERPPRLPRPRPRPVTQPRP,-0.282
20,RRIRERPPRLPRPRPRPVVCPRP,0.0991
21,RRIRERPPRLPRPRPRPWANPRP,-0.0497
22,RRIRERPPRLPRPRPRPWCCPRP,-0.244

row,Sequence,shrunken log2 fold change
1,RRIRERPPRLPRPRPRPWCMPRP,-0.533
2,RRIRERPPRLPRPRPRPWERPRP,0.0496
3,RRIRERPPRLPRPRPRPWFNPRP,-0.599
4,RRIRERPPRLPRPRPRPWFQPRP,-0.0883
5,RRIRERPPRLPRPRPRPWFYPRP,-0.985
6,RRIRERPPRLPRPRPRPWGLPRP,-0.026
7,RRIRERPPRLPRPRPRPWHMPRP,-0.0037
8,RRIRERPPRLPRPRPRPWHSPRP,-0.252
9,RRIRERPPRLPRPRPRPWIGPRP,0.155
10,RRIRERPPRLPRPRPRPWKKPRP,-0.0959
11,RRIRERPPRLPRPRPRPWKTPRP,0.0324
12,RRIRERPPRLPRPRPRPWLAPRP,0.564
13,RRIRERPPRLPRPRPRPWQGPRP,0.0776
14,RRIRERPPRLPRPRPRPWQSPRP,-0.00865
15,RRIRERPPRLPRPRPRPWRTPRP,-0.259
16,RRIRERPPRLPRPRPRPWRYPRP,-0.176
17,RRIRERPPRLPRPRPRPWSEPRP,-0.398
18,RRIRERPPRLPRPRPRPWWDPRP,-0.0282
19,RRIRERPPRLPRPRPRPWYLPRP,0.0355
20,RRIRERPPRLPRPRPRPWYTPRP,3.82
21,RRIRERPPRLPRPRPRPYAEPRP,-0.447
22,RRIRERPPRLPRPRPRPYDWPRP,-0.0444

row,Sequence,shrunken log2 fold change
1,RRIRERPPRLPRPRPRPYEAPRP,-0.59
2,RRIRERPPRLPRPRPRPYETPRP,0.0614
3,RRIRERPPRLPRPRPRPYFAPRP,-0.373
4,RRIRERPPRLPRPRPRPYFGPRP,-0.673
5,RRIRERPPRLPRPRPRPYHIPRP,-0.212
6,RRIRERPPRLPRPRPRPYKAPRP,-0.123
7,RRIRERPPRLPRPRPRPYLSPRP,-0.515
8,RRIRERPPRLPRPRPRPYMCPRP,-0.216
9,RRIRERPPRLPRPRPRPYNNPRP,-0.822
10,RRIRERPPRLPRPRPRPYQYPRP,-0.0129
11,RRIRERPPRLPRPRPRPYRVPRP,-0.236
12,RRIRERPPRLPRPRPRPYVAPRP,-0.72
13,RRIRERPPRLPRPRPRPYVMPRP,-0.401
14,RRIRERPPRLPRPRPRPYVNPRP,0.0121
15,RRIRERPPRLPRPRPRPYWPPRP,-0.249
16,RRIRERPPRLPRPRPRPYYCPRP,-0.913
17,RRIRERPPRLPRPRPRPYYMPRP,-0.785
18,RRIRERPPRLPRPRPRPYYSPRP,-0.0755
19,RRIRFRPPRLPRPRPRPACEPRP,-0.0985
20,RRIRFRPPRLPRPRPRPACGPRP,0.0797
21,RRIRFRPPRLPRPRPRPADWPRP,0.36

# Reference: the supplement of paper PMC9112550, “Optimization of the antimicrobial peptide Bac7 by deep mutational scanning” (BMC Biology, 2022)
